Test results as given in the supplement of paper PMC5998384.

How the values were obtained:
HeLa Kyoto [1] = test: solubility in G1/S (NP-40 vs SDS abundance) (log2 ratio); higher = more soluble; conditions: cell cycle stage: G1/S
HeLa Kyoto [2] = test: solubility change mitosis vs G1/S (difference of NP-40 vs SDS log2 ratios) (log2 ratio difference); higher = more soluble in mitosis
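For solubility change mitosis vs G1/S (difference of NP-40 vs SDS log2 ratios) in this document: synchronized HeLa Kyoto cells (double thymidine block for G1/S, nocodazole release for mitosis), protein amounts in NP-40 versus SDS lysates quantified by mass spectrometry, three biological replicates.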
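For solubility in G1/S (NP-40 vs SDS abundance) in this document: HeLa Kyoto cells arrested at G1/S by double thymidine block, proteins quantified by TMT10plex mass spectrometry in mild NP-40 versus SDS extracts, three biological replicates.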

Sequence | solubility in G1/S (log2) (HeLa Kyoto [1]) | solubility change mitosis (log2) (HeLa Kyoto [2])
MARRSQSSSQGDNPLAPGYLPPHYKEYYRLAVDALAEGGSEAYSRFLATEGAPDFLCPEELEHVSRHLRPPQYVTREPPEGSLLDVDMDGSSGTYWPVNSDQAVPELDLGWPLTFGFQGTEVTTLVQPPPPDSPSIKDEARRMIRSAQQVVAVVMDMFTDVDLLSEVLEAAARRVPVYILLDEMNAQHFLDMADKCRVNLQHVDFLRVRTVAGPTYYCRTGKSFKGHVKEKFLLVDCAVVMSGSYSFMWSFEKIHRSLAHVFQGELVSSFDEEFRILFAQSEPLVPSAAALARMDAYALAPYAGAGPLVGVPGVGAPTPFSFPKRAHLLFPPPREEGLGFPSFLDPDRHFLSAFRREEPPRMPGGALEPHAGLRPLSRRLEAEAGPAGELAGARGFFQARHLEMDAFKRHSFATEGAGAVENFAAARQVSRQTFLSHGDDFRFQTSHFHRDQLYQQQYQWDPQLTPARPQGLFEKLRGGRAGFADPDDFTLGAGPRFPELGPDGHQRLDYVPSSASREVRHGSDPAFAPGPRGLEPSGAPRPNLTQRFPCQAAARPGPDPAPEAEPERRGGPEGRAGLRRWRLASYLSGCHGEDGGDDGLPAPMEAEAYEDDVLAPGGRAPAGDLLPSAFRVPAAFPTKVPVPGPGSGGNGPEREGPEEPGLAKQDSFRSRLNPLVQRSSRLRSSLIFSTSQAEGAAGAAAATEKVQLLHKEQTVSETLGPGGEAVRSAASTKVAELLEKYKGPARDPGGGAGAITVASHSKAVVSQAWREEVAAPGAVGGERRSLESCLLDLRDSFAQQLHQEAERQPGAASLTAAQLLDTLGRSGSDRLPSRFLSAQSHSTSPQGLDSPLPLEGSGAHQVLHNESKGSPTSAYPERKGSPTPGFSTRRGSPTTGFIEQKGSPTSAYPERRGSPVPPVPERRSSPVPPVPERRGSLTLTISGESPKAGPAEEGPSGPMEVLRKGSLRLRQLLSPKGERRMEDEGGFPVPQENGQPESPRRLSLGQGDSTEAATEERGPRARLSSATANALYSSNLRDDTKAILEQISAHGQKHRAVPAPSPGPTHNSPELGRPPAAGVLAPDMSDKDKCSAIFRSDSLGTQGRLSRTLPASAEERDRLLRRMESMRKEKRVYSRFEVFCKKEEASSPGAGEGPAEEGTRDSKVGKFVPKILGTFKSKK [FAM83H] | -0.733 | -0.0789
MASATAPAAAVPTLASPLEQLRHLAEELRLLLPRVRVGEAQETTEEFNREMFWRRLNEAAVTVSREATTLTIVFSQLPLPSPQETQKFCEQVHAAIKAFIAVYYLLPKDQGITLRKLVRGATLDIVDGMAQLMEVLSVTPTQSPENNDLISYNSVWVACQQMPQIPRDNKAAALLMLTKNVDFVKDAHEEMEQAVEECDPYSGLLNDTEENNSDNHNHEDDVLGFPSNQDLYWSEDDQELIIPCLALVRASKACLKKIRMLVAENGKKDQVAQLDDIVDISDEISPSVDDLALSIYPPMCHLTVRINSAKLVSVLKKALEITKASHVTPQPEDSWIPLLINAIDHCMNRIKELTQSELEL [CCNDBP1] | 0.509 | -0.176
MASDGARKQFWKRSNSKLPGSIQHVYGAQHPPFDPLLHGTLLRSTAKMPTTPVKAKRVSTFQEFESNTSDAWDAGEDDDELLAMAAESLNSEVVMETANRVLRNHSQRQGRPTLQEGPGLQQKPRPEAEPPSPPSGDLRLVKSVSESHTSCPAESASDAAPLQRSQSLPHSATVTLGGTSDPSTLSSSALSEREASRLDKFKQLLAGPNTDLEELRRLSWSGIPKPVRPMTWKLLSGYLPANVDRRPATLQRKQKEYFAFIEHYYDSRNDEVHQDTYRQIHIDIPRMSPEALILQPKVTEIFERILFIWAIRHPASGYVQGINDLVTPFFVVFICEYIEAEEVDTVDVSGVPAEVLCNIEADTYWCMSKLLDGIQDNYTFAQPGIQMKVKMLEELVSRIDEQVHRHLDQHEVRYLQFAFRWMNNLLMREVPLRCTIRLWDTYQSEPDGFSHFHLYVCAAFLVRWRKEILEEKDFQELLLFLQNLPTAHWDDEDISLLLAEAYRLKFAFADAPNHYKK [TBC1D22A] | 0.31 | -0.253
MASESSPLLAYRLLGEEGVALPANGAGGPGGASARKLSTFLGVVVPTVLSMFSIVVFLRIGFVVGHAGLLQALAMLLVAYFILALTVLSVCAIATNGAVQGGGAYFMISRTLGPEVGGSIGLMFYLANVCGCAVSLLGLVESVLDVFGADATGPSGLRVLPQGYGWNLLYGSLLLGLVGGVCTLGAGLYARASFLTFLLVSGSLASVLISFVAVGPRDIRLTPRPGPNGSSLPPRFGHFTGFNSSTLKDNLGAGYAEDYTTGAVMNFASVFAVLFNGCTGIMAGANMSGELKDPSRAIPLGTIVAVAYTFFVYVLLFFLSSFTCDRTLLQEDYGFFRAISLWPPLVLIGIYATALSASMSSLIGASRILHALARDDLFGVILAPAKVVSRGGNPWAAVLYSWGLVQLVLLAGKLNTLAAVVTVFYLVAYAAVDLSCLSLEWASAPNFRPTFSLFSWHTCLLGVASCLLMMFLISPGAAGGSLLLMGLLAALLTARGGPSSWGYVSQALLFHQVRKYLLRLDVRKDHVKFWRPQLLLLVGNPRGALPLLRLANQLKKGGLYVLGHVTLGDLDSLPSDPVQPQYGAWLSLVDRAQVKAFVDLTLSPSVRQGAQHLLRISGLGGMKPNTLVLGFYDDAPPQDHFLTDPAFSEPADSTREGSSPALSTLFPPPRAPGSPRALNPQDYVATVADALKMNKNVVLARASGALPPERLSRGSGGTSQLHHVDVWPLNLLRPRGGPGYVDVCGLFLLQMATILGMVPAWHSARLRIFLCLGPREAPGAAEGRLRALLSQLRIRAEVQEVVWGEGAGAGEPEAEEEGDFVNSGRGDAEAEALARSANALVRAQQGRGTGGGPGGPEGGDAEGPITALTFLYLPRPPADPARYPRYLALLETLTRDLGPTLLVHGVTPVTCTDL [SLC12A9] | -0.0513 | 0.119
MASGVGAAFEELPHDGTCDECEPDEAPGAEEVCRECGFCYCRRHAEAHRQKFLSHHLAEYVHGSQAWTPPADGEGAGKEEAEVKVEQEREIESEAGEESESEEESESEEESETEEESEDESDEESEEDSEEEMEDEQESEAEEDNQEEGESEAEGETEAESEFDPEIEMEAERVAKRKCPDHGLDLSTYCQEDRQLICVLCPVIGAHQGHQLSTLDEAFEELRSKDSGGLKAAMIELVERLKFKSSDPKVTRDQMKMFIQQEFKKVQKVIADEEQKALHLVDIQEAMATAHVTEILADIQSHMDRLMTQMAQAKEQLDTSNESAEPKAEGDEEGPSGASEEEDT [TRIM44] | -0.118 | -0.202
MASLQRKGLQARILTSEEEEKLKRDQTLVSDFKQQKLEQEAQKNWDLFYKRNSTNFFKDRHWTTREFEELRSCREFEDQKLTMLEAGCGVGNCLFPLLEEDPNIFAYACDFSPRAIEYVKQNPLYDTERCKVFQCDLTKDDLLDHVPPESVDVVMLIFVLSAVHPDKMHLVLQNIYKVLKPGKSVLFRDYGLYDHAMLRFKASSKLGENFYVRQDGTRSYFFTDDFLAQLFMDTGYEEVVNEYVFRETVNKKEGLCVPRVFLQSKFLKPPKNPSPVVLGLDPKS [METTL6] | 0.0543 | 0.018
MASNSSSCPTPGGGHLNGYPVPPYAFFFPPMLGGLSPPGALTTLQHQLPVSGYSTPSPATIETQSSSSEEIVPSPPSPPPLPRIYKPCFVCQDKSSGYHYGVSACEGCKGFFRRSIQKNMVYTCHRDKNCIINKVTRNRCQYCRLQKCFEVGMSKESVRNDRNKKKKEVPKPECSESYTLTPEVGELIEKVRKAHQETFPALCQLGKYTTNNSSEQRVSLDIDLWDKFSELSTKCIIKTVEFAKQLPGFTTLTIADQITLLKAACLDILILRICTRYTPEQDTMTFSDGLTLNRTQMHNAGFGPLTDLVFAFANQLLPLEMDDAETGLLSAICLICGDRQDLEQPDRVDMLQEPLLEALKVYVRKRRPSRPHMFPKMLMKITDLRSISAKGAERVITLKMEIPGSMPPLIQEMLENSEGLDTLSGQPGGGGRDGGGLAPPPGSCSPSLSPSSNRSSPATHSP [RARA] | 0.18 | -0.153
MASPSKAVIVPGNGGGDVTTHGWYGWVKKELEKIPGFQCLAKNMPDPITARESIWLPFMETELHCDEKTIIIGHSSGAIAAMRYAETHRVYAIVLVSAYTSDLGDENERASGYFTRPWQWEKIKANCPYIVQFGSTDDPFLPWKEQQEVADRLETKLHKFTDCGHFQNTEFHELITVVKSLLKVPA [RBBP9] | 0.42 | 0.00166
MASQLQVFSPPSVSSSAFCSAKKLKIEPSGWDVSGQSSNDKYYTHSKTLPATQGQANSSHQVANFNIPAYDQGLLLPAPAVEHIVVTAADSSGSAATSTFQSSQTLTHRSNVSLLEPYQKCGLKRKSEEVDSNGSVQIIEEHPPLMLQNRTVVGAAATTTTVTTKSSSSSGEGDYQLVQHEILCSMTNSYEVLEFLGRGTFGQVAKCWKRSTKEIVAIKILKNHPSYARQGQIEVSILSRLSSENADEYNFVRSYECFQHKNHTCLVFEMLEQNLYDFLKQNKFSPLPLKYIRPILQQVATALMKLKSLGLIHADLKPENIMLVDPVRQPYRVKVIDFGSASHVSKAVCSTYLQSRYYRAPEIILGLPFCEAIDMWSLGCVIAELFLGWPLYPGASEYDQIRYISQTQGLPAEYLLSAGTKTTRFFNRDPNLGYPLWRLKTPEEHELETGIKSKEARKYIFNCLDDMAQVNMSTDLEGTDMLAEKADRREYIDLLKKMLTIDADKRITPLKTLNHQFVTMTHLLDFPHSNHVKSCFQNMEICKRRVHMYDTVSQIKSPFTTHVAPNTSTNLTMSFSNQLNTVHNQASVLASSSTAAAATLSLANSDVSLLNYQSALYPSSAAPVPGVAQQGVSLQPGTTQICTQTDPFQQTFIVCPPAFQTGLQATTKHSGFPVRMDNAVPIVPQAPAAQPLQIQSGVLTQGSCTPLMVATLHPQVATITPQYAVPFTLSCAAGRPALVEQTAAVLQAWPGGTQQILLPSTWQQLPGVALHNSVQPTAMIPEAMGSGQQLADWRNAHSHGNQYSTIMQQPSLLTNHVTLATAQPLNVGVAHVVRQQQSSSLPSKKNKQSAPVSSKSSLDVLPSQVYSLVGSSPLRTTSSYNSLVPVQDQHQPIIIPDTPSPPVSVITIRSDTDEEEDNKYKPSSSGLKPRSNVISYVTVNDSPDSDSSLSSPYSTDTLSALRGNSGSVLEGPGRVVADGTGTRTIIVPPLKTQLGDCTVATQASGLLSNKTKPVASVSGQSSGCCITPTGYRAQRGGTSAAQPLNLSQNQQSSAAPTSQERSSNPAPRRQQAFVAPLSQAPYTFQHGSPLHSTGHPHLAPAPAHLPSQAHLYTYAAPTSAAALGSTSSIAHLFSPQGSSRHAAAYTTHPSTLVHQVPVSVGPSLLTSASVAPAQYQHQFATQSYIGSSRGSTIYTGYPLSPTKISQYSYL [HIPK1] | 0.478 | -0.386
